Test results taken from the RNAGym collection of RNA variant scans (doi:10.1073/pnas.2313332121).
Fewer inactive variants are shown than the library holds.

B1: TPR 5TU (parent)
chain: GGAUCUUCUCGAUCUAACAAAAAAGACAAAUCUGCCACAAAGCUUGAGAGCAUCUUCGGAUGCAGAGGCGGCAGCCUUCGGUGGCGCGAUAGCGCCAACGUUCUCAACUAUGACACGCAAAACGCGUGCUCCGUUGAAUGGAGUUUAUCAUG

Variants of: B1
Test: polymerase ribozyme fitness, log enrichment relative to wild type (log ratio); higher = more active; in vitro selection for triplet polymerase activity
Summary of the method: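 In triplicate, a single round of in vitro selection was run on each mutant library, PCR-built and transcribed, covering one subunit of a heterodimeric triplet polymerase ribozyme. Frozen incubation at −7 °C followed annealing with a biotinylated primer, partner subunit and triplets, and extended constructs were then gel-excised, streptavidin-captured and taken through RT-PCR. Fitness is the logarithm of genotype enrichment over wild-type enrichment, from inverse-variance-weighted replicate averages of Illumina-sequenced inputs and outputs. […] only genotypes with ≥10 input reads and ≥1 read per output were kept.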

Variant	polymerase ribozyme fitness (log ratio)
G94A C123G U146G	-1.05
C96U G133A	-3.92
C96A A120U G140U	-3.09
C99G G124A G141U	-0.199
C96A A137U	-3.87
C95A C96A	-2.33
C96U A119C G141A	0.872
C99G A121C U151A	≤ -4.2
C96A C105G	-1.4
C96A C105U	0.343
G94U A97G U127A A150U	≤ -4.2
C96U G117U A120U C149A	≤ -4.2
C93U U109C	≤ -4.2
C95U C123U	0.509
G94C U134G U135C	≤ -4.2
C93U G94U	-1.43
C99A C116U	-0.602
C96G A107G	≤ -4.2
A98U U101G C129U U139C	≤ -4.2
C96A C132G	-3.72
C99G U144A U148A	≤ -4.2
C95U A150G	-2.25
C95A G140A	-2.71
C96G G112C	-3.95

Variant	polymerase ribozyme fitness (log ratio)
G94C U101C	-0.185
C96A U104A G124C	-1.19
C96U C116U G140C U144G	-4.04
G94A C108A A137C	≤ -4.2
C96U A97U U134G A138C	≤ -4.2
G94A U146G	-1.25
C96U C131G	-2.66
C96U C131U	0.576
A97G A107G	-4.13
G94U A147U	0.0631
C96G G100U	-3.95
C96U G126U A137C A138G	≤ -4.2
C95U C96A C99U C108U	-4.11
G94A U139C	-3.82
C96U C123A	-0.106
C96U C123U	-0.655
C96U A142G	-1.18
C96U A142C	-1.15
C96A U144A	-0.177
C93U C149G	-4.08
C93U C149U	-1.57
A97U U151G	≤ -4.2
A97U U139A U144A	-4.08
C99U A150G	-0.552

Variant	polymerase ribozyme fitness (log ratio)
C99U A150C	≤ -4.2
C96G A110G	-3.11
C93U U134A	-4.01
C99A U101G	-3.16
G94A C116G C123G	0.258
C96G A122U A142U	-1.45
C96U U144G	-0.238
A97G	-0.12
A97C	0.773
A97U	-0.75
C93U C125G	-1.79
C93U C125A	-2.69
C96G U102C A121G G141A A150G	-4.15
C99A C118G A119C	-0.582
C96A G143C	-2.38
C99A C114U U135G	-3.68
C99G A115G C125G G136C	-3.89
C96A U135C	-1.91
G94C U101A G152A	-2.72
A98G C132G G136C	-4.12
C96U A138U	≤ -4.2
A98G U101C G141U	0.851
G94C A97G A121U A122U	-0.691
A98U A138G	-3.32

Variant	polymerase ribozyme fitness (log ratio)
G94C A122C A137U	-4.05
G94A A110G	-2.35
C95A U101C	0.62
C95U C125U A142C	-3.48
C96U A121G	0.324
C96U C105G	-2.46
C96U C105A	-0.493
C96U C105U	0.67
G94A G124A A150U	0.987
C96U A97G G124A C149A	-4.08
C99U C103A G128A G136U U148G	≤ -4.2
C96G U109G G124C	-2.62
G94A C105A	-1.65
C96U C149U	-0.874
A97U C125A	-0.436
G94A C116G	0.466
C95U A142C	-1.54
C95U A142G	-1.66
C96G A119U	-2.52
G94U C129G A147U	≤ -4.2
C93U G136A	-1.1
C93U G136C	-4.02
C96G C125G U130G C132A	≤ -4.2
C95U U111G	≤ -4.2

Variant	polymerase ribozyme fitness (log ratio)
C95U A147U	0.673
C96A C125U G143A	-3.57
C93U U148A	-3.85
G94U U101G A120U A142U	-2.08
G94A U148A	-3.08
G94A U148C	-2.75
C99U C149U	-1.17
C99U A147G	-2
C96A U127A	-3.79
C93U G140U	-3.59
A97C A98U U111G	-3.78
G94U U104C G117U U134A	-2.96
C93U G117C C125A	-0.271
C96A C116G G136C	-3.22
G94A C105G C116A G141C	≤ -4.2
C96U A97C	0.0607
G94A G141U	0.898
G94A G141A	0.172
G94A G141C	-2.23
C96A A142U	-1.24
C96U A113U G124U	-2.41
C96U A113G G136C	-3.93
C95U C131G	-3.24
A98U A137C	-4.19

Variant	polymerase ribozyme fitness (log ratio)
A98U A115U A121G U127G	-3.32
A98G A121G	-1.63
C96A G136A	-0.205
A97G C123G C131G	-2.72
C96A G112C	-3.31
C96G G141C	-0.919
G94C A142C	-1.37
A98G A120G C125A U144A	-1.16
C95U C114U	-1.72
C96A C103G	-2.53
C95U A98G C105U	0.768
A98U U148A	-3.03
G94U A142U	-1.73
C96G A98U U144G	-0.0548
C96G C103U	-0.445
C95G C96U A120U A122C U139G	-1.86
C96U A119U G152C	-3.13
C96G A150U	0.451
C96U U139A	-3.94
C93U G141A U146G	-3.48
A97U U109G	-1.62
C93U U102G G117U U135A	≤ -4.2
A98U A142U	-2.98
C93U U144G	-0.253

Variant	polymerase ribozyme fitness (log ratio)
C93U U144C	-1.07
C96G C99G C116A A147C	≤ -4.2
C99G U102G U135A	≤ -4.2
C96A C105U A122U	0.463
C96G U134G	-1.64
C99A G136A	-0.217
C93U G133C	-2.76
C96G A98U C103G A113C G143A	≤ -4.2
C96U A107U	-3.35
C96U A107C	-3.14
A98G G124C	-0.819
C96A G117U A138U	≤ -4.2
C96G A142U U146A	-1.97
C99G G117C A122G	-1.51
C96A U148A	-3.15
G94C G126A	0.311
G94C A113G	-2.8
A97G U102A C129A	-3.98
G94A A97U	-1
C95U A107G	-4.16
C95U C96U G124U G136C	-3.61
C96A U130C	0.457
C96G A121C C129U	-0.0949
